What was measured:
[1] = target: T1, SelSP1 (PSGL-1 sulfopeptide); test: SPR (SensiQ Pioneer), about 1,000 RU SelK2 captured on Protein G, SelSP1 as analyte, 25 °C, 1:1 model
T1 construct: also called sulfopeptide modelled after the N-terminus of human PSGL-1
Method: (§1) SensíQ Pioneer (S/N 13110154) was used for all SPR measurements at a controlled temperature of 25° C. SelK2 (Lot #14-2189) was dispensed into three 1 mL aliquots in the biosafety cabinet. Protein G was purchased from BioVision (Cat. #6510). Running buffer for Pioneer contained 10 mM HEPES pH 7.4, 150 mM NaCl, 3.4 mM EDTA and 0.005% Tween-20. All other reagents were purchased from Sigma Aldrich.
(§2) A new COOH2 biosensor was installed and conditioned according to CH0012 protocol. Protein G was immobilized via amine coupling. A mixture containing 0.1M EDC and 0.025M NHS was injected for 4 minutes over flow channel 1 (FC1) and FC2. 50 μg/mL Protein G in 10 mM Sodium acetate buffer pH 4.5 was injected for 15 minutes over FC1 and FC2. 1M Ethanolamine HCl solution pH 8.0 was injected for 5 minutes over FC1 and FC2. Approximately 1,145 response units (RU) of Protein G was coupled on FC1 and FC2 of the sensor chip. 50 nM SelK2 in system buffer was injected to capture approximately 2,000 RU SelK2 on FC1 and 1,000 RU on FC2. […] Each sample was injected for 3 min at a flow rate of 40 μL/min. Dissociation was monitored after each injection for 4 min at the same flow rate. Samples were tested in duplicate from low concentration to high.
(§3) Kinetic model fitting was performed using Qdat analysis software (SensiQ Technologies, Inc. Version 2.5.1.56). A simple 1:1 kinetic model was fit to the data to determine best fit values for association and dissociation rate constants, ka and kd. A local Rmax was fit for each curve to account for incomplete dissociation of the SelSP1 after some of the analyte injections.

[2] = target: T1, SelSP1 (PSGL-1 sulfopeptide); test: SPR, captured SelK2, SelSP1 as analyte; value told over the two surface densities
Method: as §2, §3

[3] = target: T1, SelSP1 (PSGL-1 sulfopeptide); test: SPR; summary sentence in the description; target printed as PSGL-1, but the worked example used the PSGL-1 sulfopeptide SelSP1
[4] = target: T1, SelSP1 (PSGL-1 sulfopeptide); test: SPR (SensiQ Pioneer), about 2,000 RU SelK2 captured on Protein G, SelSP1 as analyte, 25 °C, 1:1 model
Method: as §1, §2, §3

Kd [1]: 4.27 nM
koff [1]: 0.00232 s⁻¹
kon [1]: 544000 M⁻¹ s⁻¹
Kd [2]: 4.28 nM
fold increase in affinity against the parental antibody [3]: ~4 fold
Kd [4]: 4.29 nM
koff [4]: 0.00218 s⁻¹
kon [4]: 508000 M⁻¹ s⁻¹
B1: SelK2 (antibody, human IgG2, kappa, V domains shown)
VH: QVQLVESGGGVVQPGRSLRLSCAASGFTFSSFGMHWVRQAPGKGLEWVAYISSASSTIYYADTVKGRFTISRDNSKNTLYLQMNSLRAEDTAVYYCASSYGYWGQGTLVTVSS
VL: DIVMTQTPLSLPVTPGEPASISCRSSRSLVHSNGNTYLHWYLQKPGQSPQLLIYKVSNRFSGVPDRFSGSGSGTDFTLKISRVEAEDVGVYYCSQTTHVPLTFGQGTRLEIKR
notes: human kappa light chain; also called SelK2 antibody; humanised anti-PSGL-1 antibody

— patent US20260008865A1 (TETHEREX PHARMACEUTICALS, published 2026)
